Measured values: patent US20180155451A1 (published 2018)

T1: FcγRIIa R (human, UniProt P12318 34-217)
T1 construct: extracellular domain; Soluble extracellular domain with C-terminal His tag, expressed in FreeStyle293 cells; also called FcgRIIa R; FcγRIIa type R; not shown: His tag attached to the C terminus
T1 sequence (looked up): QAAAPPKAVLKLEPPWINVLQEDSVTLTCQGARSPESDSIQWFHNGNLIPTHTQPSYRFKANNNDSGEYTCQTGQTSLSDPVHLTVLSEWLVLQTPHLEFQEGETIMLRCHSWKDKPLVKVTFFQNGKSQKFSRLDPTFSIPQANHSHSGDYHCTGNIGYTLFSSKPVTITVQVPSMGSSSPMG


Target: T1, FcγRIIa R
Assay: SPR (Biacore), antibody captured via antigen peptide, FcγRIIa R as analyte; heterodimerized antibody
Description: Analysis of interaction between objective antibody and the FcγR was carried out using Biacore T100 (GE Healthcare). HBS-EP+ (GE Healthcare) was used as the running buffer, and the measurement temperature was set to 25° C. Chips produced by immobilizing the antigen peptide by the amine coupling method to a Series S Sencor Chip CM5 (GE Healthcare), or alternatively, chips produced by allowing preliminarily biotinylated antigen peptides to interact with and immobilize onto a Series S Sensor Chip SA (certified) (GE Healthcare) were used. Antibodies of interest were captured onto an antigen peptide-immobilized chip, and allowed to interact to each FcγR diluted with running buffer. To regenerate and repeatedly use the chip, the antibodies captured on the chip were washed off by reacting 10 mM glycine-HCl, pH 1.5.

| Binder | He/Con_2aR |
| --- | --- |
| GpH7-A5/GpH7-B3 variant H268_09D/GpL16-k0 (antibody, human IgG1, kappa, heterodimerized; mutation in one H chain only; also called He Ab) heavy 1: not shown heavy 2: not shown light: DIVMTQSPLSLPVTPGEPASISCQASESLVHSNRNTYLHWYLQKPGQSPQLLIYKVSNRFSGVPDRFSGSGSGTDFTLKISRVEAEDVGVYYCSQNTHVPPTFGQGTKVEIERTVAAPSVFIFPPSDEQLKSGTASVVCLLNNFYPREAKVQWKVDNALQSGNSQESVTEQDSKDSTYSLSSTLTLSKADYEKHKVYACEVTHQGLSSPVTKSFNRGEC | 149 % of control (GpH7-A5/GpH7-B3/GpL16-k0 = 100) |
| GpH7-A5/GpH7-B3 variant G236_10E/GpL16-k0 (antibody, human IgG1, kappa, heterodimerized; mutation in one H chain only; also called He Ab) heavy 1: not shown heavy 2: not shown light: DIVMTQSPLSLPVTPGEPASISCQASESLVHSNRNTYLHWYLQKPGQSPQLLIYKVSNRFSGVPDRFSGSGSGTDFTLKISRVEAEDVGVYYCSQNTHVPPTFGQGTKVEIERTVAAPSVFIFPPSDEQLKSGTASVVCLLNNFYPREAKVQWKVDNALQSGNSQESVTEQDSKDSTYSLSSTLTLSKADYEKHKVYACEVTHQGLSSPVTKSFNRGEC | 125 % of control (GpH7-A5/GpH7-B3/GpL16-k0 = 100) |
| GpH7-A5/GpH7-B3 variant H268_10E/GpL16-k0 (antibody, human IgG1, kappa, heterodimerized; mutation in one H chain only; also called He Ab) heavy 1: not shown heavy 2: not shown light: DIVMTQSPLSLPVTPGEPASISCQASESLVHSNRNTYLHWYLQKPGQSPQLLIYKVSNRFSGVPDRFSGSGSGTDFTLKISRVEAEDVGVYYCSQNTHVPPTFGQGTKVEIERTVAAPSVFIFPPSDEQLKSGTASVVCLLNNFYPREAKVQWKVDNALQSGNSQESVTEQDSKDSTYSLSSTLTLSKADYEKHKVYACEVTHQGLSSPVTKSFNRGEC | 148 % of control (GpH7-A5/GpH7-B3/GpL16-k0 = 100) |
| GpH7-A5/GpH7-B3 variant H268_18N/GpL16-k0 (antibody, human IgG1, kappa, heterodimerized; mutation in one H chain only; also called He Ab) heavy 1: not shown heavy 2: not shown light: DIVMTQSPLSLPVTPGEPASISCQASESLVHSNRNTYLHWYLQKPGQSPQLLIYKVSNRFSGVPDRFSGSGSGTDFTLKISRVEAEDVGVYYCSQNTHVPPTFGQGTKVEIERTVAAPSVFIFPPSDEQLKSGTASVVCLLNNFYPREAKVQWKVDNALQSGNSQESVTEQDSKDSTYSLSSTLTLSKADYEKHKVYACEVTHQGLSSPVTKSFNRGEC | 128 % of control (GpH7-A5/GpH7-B3/GpL16-k0 = 100) |
| GpH7-A5/GpH7-B3 variant I332_09D/GpL16-k0 (antibody, human IgG1, kappa, heterodimerized; mutation in one H chain only; also called He Ab) heavy 1: not shown heavy 2: not shown light: DIVMTQSPLSLPVTPGEPASISCQASESLVHSNRNTYLHWYLQKPGQSPQLLIYKVSNRFSGVPDRFSGSGSGTDFTLKISRVEAEDVGVYYCSQNTHVPPTFGQGTKVEIERTVAAPSVFIFPPSDEQLKSGTASVVCLLNNFYPREAKVQWKVDNALQSGNSQESVTEQDSKDSTYSLSSTLTLSKADYEKHKVYACEVTHQGLSSPVTKSFNRGEC | 119 % of control (GpH7-A5/GpH7-B3/GpL16-k0 = 100) |
| GpH7-A5/GpH7-B3 variant I332_04F/GpL16-k0 (antibody, human IgG1, kappa, heterodimerized; mutation in one H chain only; also called He Ab) heavy 1: not shown heavy 2: not shown light: DIVMTQSPLSLPVTPGEPASISCQASESLVHSNRNTYLHWYLQKPGQSPQLLIYKVSNRFSGVPDRFSGSGSGTDFTLKISRVEAEDVGVYYCSQNTHVPPTFGQGTKVEIERTVAAPSVFIFPPSDEQLKSGTASVVCLLNNFYPREAKVQWKVDNALQSGNSQESVTEQDSKDSTYSLSSTLTLSKADYEKHKVYACEVTHQGLSSPVTKSFNRGEC | 105 % of control (GpH7-A5/GpH7-B3/GpL16-k0 = 100) |
| GpH7-A5/GpH7-B3 variant H268_13S/GpL16-k0 (antibody, human IgG1, kappa, heterodimerized; mutation in one H chain only; also called He Ab) heavy 1: not shown heavy 2: not shown light: DIVMTQSPLSLPVTPGEPASISCQASESLVHSNRNTYLHWYLQKPGQSPQLLIYKVSNRFSGVPDRFSGSGSGTDFTLKISRVEAEDVGVYYCSQNTHVPPTFGQGTKVEIERTVAAPSVFIFPPSDEQLKSGTASVVCLLNNFYPREAKVQWKVDNALQSGNSQESVTEQDSKDSTYSLSSTLTLSKADYEKHKVYACEVTHQGLSSPVTKSFNRGEC | 127 % of control (GpH7-A5/GpH7-B3/GpL16-k0 = 100) |

Next, values leading:

| He/Con_2aR | Binder |
| --- | --- |
| 114 % of control (GpH7-A5/GpH7-B3/GpL16-k0 = 100) | GpH7-A5/GpH7-B3 variant I332_10E/GpL16-k0 (antibody, human IgG1, kappa, heterodimerized; mutation in one H chain only; also called He Ab) heavy 1: not shown heavy 2: not shown light: DIVMTQSPLSLPVTPGEPASISCQASESLVHSNRNTYLHWYLQKPGQSPQLLIYKVSNRFSGVPDRFSGSGSGTDFTLKISRVEAEDVGVYYCSQNTHVPPTFGQGTKVEIERTVAAPSVFIFPPSDEQLKSGTASVVCLLNNFYPREAKVQWKVDNALQSGNSQESVTEQDSKDSTYSLSSTLTLSKADYEKHKVYACEVTHQGLSSPVTKSFNRGEC |
| 110 % of control (GpH7-A5/GpH7-B3/GpL16-k0 = 100) | GpH7-A5/GpH7-B3 variant I332_15Y/GpL16-k0 (antibody, human IgG1, kappa, heterodimerized; mutation in one H chain only; also called He Ab) heavy 1: not shown heavy 2: not shown light: DIVMTQSPLSLPVTPGEPASISCQASESLVHSNRNTYLHWYLQKPGQSPQLLIYKVSNRFSGVPDRFSGSGSGTDFTLKISRVEAEDVGVYYCSQNTHVPPTFGQGTKVEIERTVAAPSVFIFPPSDEQLKSGTASVVCLLNNFYPREAKVQWKVDNALQSGNSQESVTEQDSKDSTYSLSSTLTLSKADYEKHKVYACEVTHQGLSSPVTKSFNRGEC |
| 138 % of control (GpH7-A5/GpH7-B3/GpL16-k0 = 100) | GpH7-A5/GpH7-B3 variant K326_06M/GpL16-k0 (antibody, human IgG1, kappa, heterodimerized; mutation in one H chain only; also called He Ab) heavy 1: not shown heavy 2: not shown light: DIVMTQSPLSLPVTPGEPASISCQASESLVHSNRNTYLHWYLQKPGQSPQLLIYKVSNRFSGVPDRFSGSGSGTDFTLKISRVEAEDVGVYYCSQNTHVPPTFGQGTKVEIERTVAAPSVFIFPPSDEQLKSGTASVVCLLNNFYPREAKVQWKVDNALQSGNSQESVTEQDSKDSTYSLSSTLTLSKADYEKHKVYACEVTHQGLSSPVTKSFNRGEC |
